{"source": "paper PMC4452869", "key": {"[1]": {"target": "HIV-1 reverse transcriptase p51 (HIV-1) (UniProt P03366)", "experiment": "NMR (1H-13C HMQC of Ile delta-methyl-labelled protein); 150 µM [^13CH3-Ile]p51 in 25 mM Tris-HCl-d11 in D2O (pD 7.5), 800 mM KCl, 20 mM MgCl2, 0.02% NaN3 (high salt to stabilise the homodimer); monomer to dimer"}, "[2]": {"target": "HIV-1 reverse transcriptase p66 (HIV-1)", "experiment": "SEC; HiLoad 26/60 superdex 200 column, p66 and p66∆PL run separately; 50 mM Tris–HCl, pH 8.0, 200 mM NaCl, 1 mM EDTA; 0.5 ml/min; 4 °C; absorbance at 280 nm; monomer to dimer"}, "[3]": {"target": "HIV-1 reverse transcriptase p66 (HIV-1)", "experiment": "NMR (1H-13C HMQC of Ile delta-methyl-labelled protein, time-dependent); [^13CH3-Ile]p66 homodimerization; successive 5.5-hr spectra after dimerization conditions were introduced; 25 mM Tris-HCl-d11 in D2O, pD 7.51, 100 mM KCl, 0.02% NaN3; 35 °C; apparent time constants; monomer to dimer"}, "[4]": {"target": "HIV-1 reverse transcriptase p66 (HIV-1)", "experiment": "NMR (1H-13C HMQC of Ile delta-methyl-labelled protein, time-dependent); 45 µM [^13CH3-Ile]p66∆PL with 90 µM unlabeled p66 (twofold excess); 25 mM Tris-HCl-d11, pD 7.5, 100 mM KCl, 0.02% NaN3; successive 5.5-hr spectra; 35 °C; apparent time constants"}}}
{"substance": "HIV-1 reverse transcriptase p51 (from UniProt P03366 600-1039) (natural protein)", "values": [{"measurement": "percent dimer", "setting": "[1]", "value": 90, "unit": "%"}]}
{"substance": "HIV-1 reverse transcriptase p66 (enzyme)", "values": [{"measurement": "dimer/monomer ratio (percent dimer)", "setting": "[2]", "value": 75, "unit": "% dimer"}, {"measurement": "stoichiometry N", "setting": "[2]", "value": 2}, {"measurement": "apparent time constant of dimer formation (Ile382E resonance)", "setting": "[3]", "value": 2.4, "unit": "h"}]}
{"substance": "p66∆PL, p66 deletion mutant lacking palm loop residues 219–230 (enzyme)", "values": [{"measurement": "apparent time constant of growth of the dimer resonance (Ile47C)", "setting": "[4]", "value": 8.8, "unit": "h"}, {"measurement": "apparent time constant of monomer decay (Ile47M resonance)", "setting": "[4]", "value": 9.1, "unit": "h"}, {"measurement": "apparent time constant of monomer decay (Ile393M resonance)", "setting": "[4]", "value": 9.3, "unit": "h"}, {"measurement": "mean monomer decay time constant", "setting": "[4]", "value": 9, "unit": "h"}, {"measurement": "percent dimerized (limit reached)", "setting": "[4]", "value": "80 to 90", "unit": "%"}, {"measurement": "percent of the Ile47' intensity in the dimer species, initial spectra", "setting": "[4]", "value": "30 to 40", "unit": "%"}, {"measurement": "percent of the Ile47' intensity in the dimer species, limiting value", "setting": "[4]", "value": 80, "unit": "%"}]}
